Laboratory results published in the supplement of paper PMC12042874.
± gives the uncertainty stated by the source.

Assay: amyloid nucleation score (Sup35N fusion, yeast selection) (log enrichment); library NNK1; higher = more nucleation; inactive = no reads after selection
In short: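 Peptides of 20 random codons fused to Sup35N were expressed in psi-negative yeast, induced 24 hours with 100 μM copper sulfate, then grown 7 days at 30°C on medium lacking adenine and uracil. Input and output plasmid inserts were Illumina-sequenced. Nucleation score is the DiMSum log enrichment of output over input reads, centred on the mode score of non-aggregating sequences, excluding sequences with under 100 input reads. Random libraries had three technical output replicates.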

Substance | amyloid nucleation score
YHDVRLMVRVHVFWLF | 1.03 ± 0.37
TLIWSCARHWV | 1.44 ± 0.22
ACFWYTL | 0.024 ± 0.47
LWVRSKFRSC | -0.08 ± 1.1
RKHIRYTLVREIPLKSFSQY | 0.043 ± 0.28
GYPIDGMYKRAALVRMDICF | 0.718 ± 0.92
RFCSKRMRVLIFFGLV | -0.165 ± 0.34
SVTDRKV | 0.468 ± 0.41
NSCRMPYSGV | inactive
WSLNERQNMLHLHRLTASLG | -0.088 ± 0.88
SDYRRPKEPVSS | 3.01 ± 0.16
ILRRRMHDG | 0.247 ± 1.4
NTDSLLFNLISLMRNRERFK | 0.351 ± 0.54
TDKSCRRNGTHAMVHFTPEL | -1.99 ± 1.7
QWRSFYTAWVAYRDECPGGF | 2.44 ± 0.15
QVRGTEVPVSIAVGLGTSRL | 1.05 ± 0.66
FFGVLNIPNFCVSMF | 0.645 ± 0.69
IVDCYSLDRYRVLLWSS | 0.566 ± 0.36
FMVACWHSKWAYDNCYYNSS | inactive
YSHYNTIGLYILSKVSSMAV | inactive
INLCVPPRNVLFIDRCWTVV | 1.29 ± 0.3
ISFDSLWDCSYS | -0.232 ± 0.23
LSHWMPVN | -0.527 ± 0.34
YLLCMGMVFSIGKFSSIPCP | inactive
RLAFLIDRWVALRNEWRKGV | -0.791 ± 0.72

Substance | amyloid nucleation score
WNNVGNTCMEPRSSLGCTLR | 0.147 ± 0.51
AFYSEMGFSDVYILLVYSMM | 4.45 ± 0.073
DYDGWQLPMCNNITMTWKVC | 2.7 ± 0.12
IASMSVFPSHMCFVGTSTVR | -0.417 ± 0.34
YLINLRFCEREAGFNFLLGR | -1.12 ± 2.7
PCVQSHMCYYNMSGITKGFR | -0.332 ± 0.43
MSSSKGVVYDCFCSMWWLLP | 0.018 ± 0.73
VMHLWLVYCHTTVS | 0.755 ± 0.73
AWLKSSGEEVVAGAQRPEHV | -1.02 ± 0.9
AIAGSAMVEGAH | 0.985 ± 0.77
SAGSVADRGCLFSLRRASKC | 0.851 ± 0.78
ELNPMFKTQHWLNSWNIWLL | 2.47 ± 0.089
PQPYTRNIERLAYVFTLDMP | -0.21 ± 0.27
HSLSWDNKLCLCSAN | 0.099 ± 0.3
EYRTSSEQTANTFILKPRWA | 1.72 ± 0.4
LFLLEINVSSRIWPSFPKSY | 0.257 ± 0.42
EFYYMKLRYRVRRKF | -0.716 ± 0.45
NKNCLELCLTHGMLNQL | 0.25 ± 0.36
NGVLYFD | 0.371 ± 0.57
REDKYHIVVT | -0.275 ± 0.28
SYDRNDFLGERSVGMH | 0.736 ± 0.36
LLVCSKRSGLVSLLLVIYAF | -0.522 ± 1.4
TYSRARAQSIMFVRLFKACL | 0.643 ± 0.34
SFVFAVWFW | 0.181 ± 0.83
QGLAGHLSRRYFY | -1.96 ± 2.1

Substance | amyloid nucleation score
QCSSANTSGIAETSTSLGRT | -0.244 ± 1.1
DIILLYSLFADIFISGRIYT | -0.13 ± 0.58
INLVTKYHLSITCSHSCQA | 7.204 ± 0.05
EYGVSLV | 0.089 ± 0.53
YSSSPVFGCEAPGDYQLGY | 1.24 ± 0.76
YAFIG | -1.07 ± 1.5
WVAVRDMKGYRSRKKGQSWH | 0.199 ± 0.5
NDCKSQRSRNSMGCQ | inactive
WTSMGTHTFSVRNRSGPHNG | 1.22 ± 0.62
AFALHSHFLSL | 1.75 ± 0.19
FDSLNAYSLSPSMVMKDSRG | 0.17 ± 0.18
AEYNVGLLSCSNDSLWDQWS | inactive
FNLSLLRSSCAVH | 1.04 ± 0.62
MGAVKH | -0.017 ± 0.3
TDSEVAFVNGTNSQRWFFGW | 1.07 ± 0.53
LEDHVWKVVVYLSKNDVCMG | 0.269 ± 0.67
QYTYFMSGDWSNGRVSLVKK | 2.96 ± 0.099
WNFLFSCLMLGSSWMACDWQ | -0.305 ± 0.76
DRLVDTNYRASGYPVRYMVS | -1.31 ± 0.78
GVVACLFFWVRAFFYR | inactive
AWSLTSTHFG | 0.249 ± 0.69
LFFVPMARVW | 0.01 ± 0.54
LRSVPRSRSF | 0.783 ± 0.41
PILFYDQSFLILWQINGAGG | inactive
VRRQFVPKSYLCCESYFNEV | 0.32 ± 0.56

Substance | amyloid nucleation score
SASPLVAMDNVGCA | -0.748 ± 0.37
NGHSVASSVDAVMLCRYRGK | 0.688 ± 0.69
YWPPGFAVS | 1.01 ± 0.81
DIGLREFNWVTNITTLPQLG | 1.33 ± 0.61
VEPLCGTRFACRLNAFKTTG | -0.097 ± 0.39
KYVSYQGQVDCSCKSVL | -0.182 ± 0.45
CGSRSCSLFDRKWIRYFLGC | 0.759 ± 0.34
QVTRDGSYVGCGGGRRREMC | -0.359 ± 1.9
LYLLSDNFR | 1.68 ± 0.72
RCGCERTYSFR | -0.027 ± 0.72
RSASAREHNTALRSRPARVG | -0.353 ± 1.7
TNINSSTDKRLPTET | -0.013 ± 0.5
RGYLMHMTVAKILSVVKKRA | -2.16 ± 2.7
NFRGLRLSKIYLLHHAGNLW | 0.533 ± 0.47
YWDGYEVDVNGVREYEGNAV | 0.305 ± 0.19
SYQSDDLWQETKPALSPLLE | 0.119 ± 0.46
SVSFEDDISMASGCCFLRGC | -0.146 ± 0.25
RSRLPGCDFVPLYEVH | -0.472 ± 0.44
KFSGWHLHGDLCRIHALEVW | 0.457 ± 0.27
PIWLTDKFGG | -0.24 ± 0.61
WSPEMNVVKFTLFYNRSSRF | 7.13 ± 0.078
LLVVIQICLM | 2.9 ± 0.14
QGIVAVLED | inactive
AYCVAHTYCMSGMRYIADWV | 0.421 ± 0.31
RSEGKNMADS | -0.46 ± 1.1

Substance | amyloid nucleation score
GNVYVKISVTVFADDYVLRV | 3.81 ± 0.11
LLVESKAYGWHVMRGQTWTR | -0.045 ± 0.42
CNLYFSYNCVFT | -0.592 ± 0.24
WTIWVKDSLVPVCTSF | -1.03 ± 1.2
CFFDGICLDQERYVMNFRAF | 0.104 ± 0.51
STLSVLLSWQN | 0.01 ± 0.41
DGNNNKLVMVLWLSYADYRW | inactive
MCLFENMFDHFSGSLQSHGG | 0.318 ± 0.27
AIDSVNMTTLRWM | 0.292 ± 0.62
DKNVSRFIPNEMLCLKPWAP | 1.19 ± 0.9
DVKCAVTLVL | -0.055 ± 0.6
LGCLFNAGAFWAYGGMVSLH | -0.024 ± 0.57
PMFSSGLT | 0.099 ± 0.42
GWTIKSSYYG | -0.906 ± 1.4
TDCSSLC | -0.373 ± 0.31
SEHRMASRHVNPRPGGKDCR | -1.54 ± 2.7
LRNIGCKY | 1.01 ± 0.64
TYWYSHINFLYYIASFVWSP | inactive
KREFQCWTSACFFDISSAEL | 0.34 ± 0.79
HRRFLAPME | 0.385 ± 0.3
INSAHYELN | -1.51 ± 2.4
PYHEMGIYYLGGLYSK | 0.743 ± 1.1
TASIDEQHHWTRQY | 0.32 ± 0.36
RSNCWFEV | 0.035 ± 0.4
SSLVKTS | -0.44 ± 0.47

Substance | amyloid nucleation score
RGCRSCAFLIPGLVLCWWKE | 0.069 ± 0.62
KYMFRARCKRMTFGYPG | -1.58 ± 1.4
MFFSSIYVAYYGLLLIYSYM | inactive
THWLNRTGCVRTHPVQSGKE | -1.09 ± 1
ITVSYDKGFSFNLWGIHFKV | 0.071 ± 0.28
VLLGELIL | 0.434 ± 0.56
QYSCN | 1.72 ± 0.46
TAESQAKQLSSNRKVGLTPS | 0.549 ± 0.27
KLVTAPISKSLF | 0.55 ± 0.92
VGSRLQRHGDGTGSLGLSWC | inactive
LQNSDVFHADLQIISPTFCP | -0.826 ± 1.8
TNRPLVLTDNVNKSLKMRLP | 0.638 ± 0.27
CYLPWDSKNGVEDLYWYEFK | 1.79 ± 0.13
CPVWELLKDCMCHKNGLFCT | 1.28 ± 0.58
RRSQGAYLLNDGVRGIL | -0.057 ± 0.28
NLMEKRSLRAIRWIVRSWAG | 0.839 ± 0.62
LNSLNVGLVEDKQYILYER | 1.68 ± 0.39
GRCLCGLVDDYFYNAYWVLP | -0.555 ± 0.35
SACGVIRRLSAGYNCFYVK | 0.229 ± 0.51
MNGYLRLHSDTNCSCC | inactive
NVWIYPDSMKSNQTDLG | 1.26 ± 0.74
ALCYPLMDSRSSRSYVQTRR | 2.61 ± 0.12
LRNAVFVDPSCNYYVFILRL | 3.72 ± 0.15
SFIPKVGCKKEPARRASGNV | 0.413 ± 1.4
CPGFD | 0.595 ± 0.64

Substance | amyloid nucleation score
LTVLACPRYSS | 0.525 ± 0.87
LRVKIHTIVIQWIANNGARL | 0.39 ± 0.74
NEIYKTA | -1.12 ± 2.7
VMRVAYNDT | 0.416 ± 0.36
ATLEGVCNINHPSCCASLLD | 0.002 ± 0.61
SRLEKKGNWPVYSTQAVWMT | -0.421 ± 0.42
HGRLTYSDVVNVRTFPGLMK | -0.232 ± 0.25
AVSSVVPGTCL | 0.55 ± 0.68
VWARVMNAYFDTSH | -1.22 ± 2.4
GHTVVSSWALNFEYGFQLGY | 0.05 ± 0.5
INVWNLSWGNMIRAKNHLGV | -0.107 ± 0.53
VIKFWSQ | 0.536 ± 0.77
VQGYKVRLSGRNFGCNCASK | -1.85 ± 1.8
RVNFSDTYTSSGGFALGMST | 0.43 ± 0.3
RCLIDCD | 0.157 ± 0.52
MHISWPYYRHDIVRRKSCSA | 0.011 ± 0.29
RKDRLTIGNRNL | 0.73 ± 0.69
WDTTVWMIPFNARVFFVGLC | -0.083 ± 0.35
VDNNARDTSVGSALENMWVL | 1.16 ± 0.62
AFDIVDRSRYILY | 0.58 ± 0.6
SICSFLFR | 3.69 ± 0.093
HHLVLQRD | 0.347 ± 0.28
WRSVPRASFRNWSLWDPLYT | 0.453 ± 0.29
PVLKPGFL | -0.266 ± 0.5
